# Reference: article PMC10359499
# What was measured:
# [1] = molecular target: MS367 (PAS histidine kinase from Methylocella silvestris BL2) (Methylocella silvestris BL2); test: SEC-MALS; PAS-HKs MS367 and RE356; mixtures, and monomer and dimer fractions purified separately and reinjected on Superdex 200 GL; HSEC buffer with 1 mM ATP; FPLC at 4 °C, MALS at 25 °C; n = 1
# [2] = molecular target: RE356 (PAS histidine kinase from Rhizobium etli CFN 42) (Rhizobium etli CFN 42); test: as above
# [3] = molecular target: RH376 WT (LOV histidine kinase); test: SEC-MALS; LOV-HKs and RH376 deletion mutants; ~15 μM sample (400 μl) with 1 mM ATP on Superdex 200 GL 10/300 in HSEC buffer (50 mM Hepes pH 7.5, 100 mM NaCl, 10 mM MgCl2, 0.5 mM DTT) with 1 mM ATP; dark (dim red light) and lit (blue LED) runs; FPLC at 4 °C, MALS and refractive index at 25 °C; n = 1; oligomeric state on a qualitative five-bin scale
# [4] = molecular target: RT349 (LOV histidine kinase from Rubellimicrobium thermophilum) (Rubellimicrobium thermophilum); test: as above
substance,measurement,setting,value
MS367 (PAS histidine kinase from Methylocella silvestris BL2) (enzyme),stoichiometry N,[1],2
RE356 (PAS histidine kinase from Rhizobium etli CFN 42) (enzyme),stoichiometry N,[2],2
RH376 WT (LOV histidine kinase) (enzyme),stoichiometry N,[3],2
RT349 (LOV histidine kinase from Rubellimicrobium thermophilum) (enzyme),stoichiometry N,[4],2
